Among the data in paper doi:10.1101/2020.05.14.097071 are Kd values, retold here.

Assay [1] concerns the target monomeric RAD51 (HumRadA22). The assay can be described thus: fluorescence polarisation.
Assay [2] deals with monomeric RAD51 (HumRadA22). The assay can be described thus: ITC.
Assay [3] deals with monomeric RAD51 (HumRadA22).

Like-named read-outs stand apart in the source and are kept apart here.

In assay [1], GB1-BRC7-8 (peptide) returned a Kd of 11000 nM.
With BRC8-2(S2056A) (peptide), in assay [2], the Kd is 5 nM.
In assay [1], GB1-BRC4-5 (peptide) gave a Kd of 2100 nM.
For the substance GB1-BRC4 (peptide), the results for the dissociation constant (Kd) in assay [2], in assay [3] and in assay [1] were 11 nM, 21 nM and 38 nM, respectively.
Consider BRC4 with deletion of Lys1530 (peptide), for which, in assay [3], the Kd is 4100 nM.
